This is an account of results in PMC5934816.

This data set concerns the target mLDH, mammalian lactate dehydrogenase (bovine) (UniProt P19858). Nature of the data set: ELONA. The settings on record: ELONA: 500 ng immobilized protein; aptamer in HMCKN (2 mM HEPES, 0.2 mM MgCl2, 0.2 mM CaCl2, 0.2 mM KCl, 15 mM NaCl, pH 7.4), 2 h, room temperature; washes ….

In the case of “GCCTGTTGTGAGCCTCCTAACCAGCTCGTAGAAAAAAAAAGATATTGCTTCAATTATCTCCTCGCGTTCAATTAACCCAGCATGCTTATTCTTGTCTCCC [rLDH 4]”, the binding signal was determined as 0.053 OD450.
